Experimental data as given in patent US20210054078A1 (PHARMABCINE, published 2021).
Like-named read-outs stand apart in the source and are kept apart here.

Columns and labels:
[1] = target: T1, mouse PD-L1 on mPD-L1/CHO-K1 overexpressing cells (mouse, UniProt Q9EP73 19-290); experiment: flow cytometry, purified IgG on mPD-L1/CHO-K1 cells, PE anti-human IgG-Fc
T1 construct: whole, on cells; also called mouse PD-L1-expressing cells
Protocol: (§1) For flow cytometry, overexpressing cell lines (hPD-L1/CHO-K1, mPD-L1/CHO-K1), established by introducing human and. mouse PD-L1 genes into CHO-K1 cells, were used. Each cell was maintained and cultured, washed with PBS, suspended in 5 mM EDTA and then recovered through centrifugation. A cell suspension (5×10⁶ cells/ml) was prepared using a FACS-exclusive buffer (containing 2% FBS and PBS 0.05% sodium azide), and was seeded at 100 μl/tube. […] of a test antibody was added at 100 μl to each test tube and then allowed to stand at 4° C. for 30 minutes to induce antibody-cell binding. […] After washing with 2 ml of FACS buffer, 200 μl of FACS buffer was added to suspend the cells. As a positive control group, fluorescence labeling was conducted using FITC-conjugated anti-human PD-L1 antibody (#558065, BD Biosciences) and PE-conjugated anti-mouse […] (#558091, BD Biosciences).

[2] = target: T2, human PD-L1 (soluble protein of the kinetic measurements) (human, UniProt Q9NZQ7 19-238, limits assumed); experiment: BLI (Octet), antibody fixed on biosensor, PD-L1 in solution
T2 construct: kept apart from the His-tag protein of the ELISA; also called hPD-L1
Protocol: (§2) The binding ability of the selected anti-PD-L1 antibody to human or mouse PD-L1 was measured using the Octet system (Fortebio Inc. US). For this purpose, an anti-PD-L1 antibody was fixed on a biosensor, and binding kinetics at each concentration of human or mouse PD-L1 were measured to calculate a binding rate constant (kₐ), a dissociation rate constant (kdis) and a binding constant (KD) (Table 3).

[3] = target: T3, Mouse PD-L1-HisTag (#50010-M08H, Sino Biological Inc.) (mouse, UniProt Q9EP73 19-238); experiment: ELISA on coated His-tag mouse PD-L1, OD450-630
T3 construct: Bought protein coated on the ELISA plate; also called mPD-L1; His-tag mouse PD-L1 protein; not shown: His tag

[4] = target: T4, human PD-L1 on hPD-L1/CHO-K1 overexpressing cells (human, UniProt Q9NZQ7 19-290); experiment: flow cytometry on hPD-L1/CHO-K1 cells (sheet label hPD-1/CHO-K1)
T4 construct: whole, on cells; also called human PD-L1-expressing cells
Protocol: as §1
(§3) The cell-binding ability of the optimized anti-PD-L1 antibody was measured through flow cytometry. The experiment was performed in the same manner as in Example 6. […] In order to evaluate binding force, binding kinetics were analyzed using Octet and the binding constant was calculated (Table 7).

[5] = target: T1, mouse PD-L1 on mPD-L1/CHO-K1 …; experiment: flow cytometry on mPD-L1/CHO-K1 cells (sheet label mPD-1/CHO-K1)
Protocol: as §1, §3

[6] = target: T5, mouse PD-L1 (soluble protein of the kinetic measurements) (mouse, UniProt Q9EP73 19-238, limits assumed); experiment: BLI (Octet), antibody fixed on biosensor, PD-L1 in solution
T5 construct: kept apart from the His-tag protein of the ELISA; also called mPD-L1
Protocol: as §2

[7] = target: T2, human PD-L1 (soluble protein of the …); experiment: as above; remark: listed apart in the source
Protocol: as §2, §3

[8] = target: T5, mouse PD-L1 (soluble protein of the …); experiment: as above; remark: listed apart in the source
Protocol: as §2, §3

T2 sequence (Q9NZQ7 19-238 limits assumed): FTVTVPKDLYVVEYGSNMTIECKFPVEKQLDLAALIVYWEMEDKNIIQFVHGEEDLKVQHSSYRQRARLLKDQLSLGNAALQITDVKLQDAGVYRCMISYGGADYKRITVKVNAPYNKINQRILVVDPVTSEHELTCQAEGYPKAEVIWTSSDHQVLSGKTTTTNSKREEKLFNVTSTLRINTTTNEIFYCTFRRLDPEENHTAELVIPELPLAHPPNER
T5 sequence (Q9EP73 19-238 limits assumed): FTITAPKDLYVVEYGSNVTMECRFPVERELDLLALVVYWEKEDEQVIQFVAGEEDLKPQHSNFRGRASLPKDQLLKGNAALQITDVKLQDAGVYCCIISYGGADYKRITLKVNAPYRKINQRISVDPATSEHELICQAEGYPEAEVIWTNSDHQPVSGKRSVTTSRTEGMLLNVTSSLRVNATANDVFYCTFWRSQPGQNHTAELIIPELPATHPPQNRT
T1 sequence (Q9EP73 19-290): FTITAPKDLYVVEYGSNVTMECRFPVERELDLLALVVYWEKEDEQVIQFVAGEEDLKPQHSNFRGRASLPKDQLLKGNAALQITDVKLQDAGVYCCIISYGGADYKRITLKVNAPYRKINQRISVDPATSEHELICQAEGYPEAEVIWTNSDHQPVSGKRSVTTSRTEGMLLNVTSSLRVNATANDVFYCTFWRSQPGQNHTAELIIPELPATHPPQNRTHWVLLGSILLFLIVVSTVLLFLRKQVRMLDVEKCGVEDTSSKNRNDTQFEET
T4 sequence (Q9NZQ7 19-290): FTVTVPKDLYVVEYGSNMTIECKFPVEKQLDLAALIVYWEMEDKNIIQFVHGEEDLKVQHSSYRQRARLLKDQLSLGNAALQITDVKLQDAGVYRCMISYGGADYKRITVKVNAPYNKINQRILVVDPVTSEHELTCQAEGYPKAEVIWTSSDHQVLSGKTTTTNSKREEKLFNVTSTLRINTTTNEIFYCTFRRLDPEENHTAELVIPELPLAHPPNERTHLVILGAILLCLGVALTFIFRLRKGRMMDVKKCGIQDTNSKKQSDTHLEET
T3 sequence (Q9EP73 19-238 limits assumed, stated change not applied): as the sequence (Q9EP73 19-238 limits assumed) above

Binder	% Gated in M1 [4] [%]	Geo Mean in M1 [4]	Geo Mean, all events [4]	Mean in M1 [4]	Mean, all events [4]	% Gated in M1 [5] [%]	Geo Mean in M1 [5]	Geo Mean, all events [5]	Mean in M1 [5]	Mean, all events [5]	koff [7] [s⁻¹]	kon [7] [M⁻¹ s⁻¹]	Kd [8] [nM]	koff [8] [s⁻¹]	kon [8] [M⁻¹ s⁻¹]	Kd [7] [nM]	also measured
1G1 anti-PD-L1 antibody (IgG form) (antibody, V domains shown, Converted to IgG with the vectors pIgGHD-6A6Hvy and pIgGLD-6A6Lgt; Expressed in Expi293F cells; also called IG1) VH: QVQLVESGGGLVQPGRSLRLSCAASGFTFDDYAMHWVRQAPGKGLEWVSGISWNSGSIGYADSVKGRFTISRDNAKNSLYLQMNSLRAEDTAVYYCAKPRDISSWLGMDVWGQGTTVTVSS VL: DIQMTQSPSSVSASVGDRVTITCRASQDISSWLAWYQQKPGKAPKLLIYAASSLQSGVPSRFSGSGSGTDFTLTISSLQPEDSATYYCQQTNNFPYTFGQGTKLEIKR																	binding result [1]: no binding; Kd [2]: 0.629 nM; koff [2]: 0.000146 s⁻¹; kon [2]: 232000 M⁻¹ s⁻¹; binding result [3]: no binding
ME4 anti-PD-L1 antibody (IgG form) (antibody, V domains shown, Converted to IgG with the vectors pIgGHD-6A6Hvy and pIgGLD-6A6Lgt; Expressed in Expi293F cells) VH: QVQLVESGAEVKKPGSSVKVSCKASGGTFNNYAVSWVRQAPGQGLEWMGRIIPILGIANYAQTFQGRVTITADKSTTTAYMELSSLRSEDTAVYYCARSYSGYAEGAFDIWGQGTMVTVSS VL: QFVLTQPPSVSGAPGQRVTISCTGSSSNIGAGYDVHWYQQLPGTAPKVLIYGNSDRPSGVPDRFSGSKSGTSASLAITGLQGEDKATYYCQSYDSRLSGPVFGTGTKVTVLG	83.2	34.4	27.8	38.3	33.6	28.8	20	10.4	20.6	12.3	0.000324	188000	37.4	0.00211	56300		Kd [2]: 1.72 nM; koff [2]: 0.000324 s⁻¹; kon [2]: 188000 M⁻¹ s⁻¹; Kd [6]: 37.4 nM; koff [6]: 0.00211 s⁻¹; kon [6]: 56300 M⁻¹ s⁻¹
ME4.A2 anti-PD-L1 antibody (IgG form) (antibody, V domains shown) VH: QVQLVESGAEVKKPGSSVKVSCKASGGTFNNYAVSWVRQAPGQGLEWMGRIIPILGIANYAQTFQGRVTITADKSTTTAYMELSSLRSEDTAVYYCARSSRGYAHGAFDIWGQGTMVTVSS VL: QFVLTQPPSVSGAPGQRVTISCTGSSSNIGAGYDVHWYQQLPGTAPKVLIYGNSDRPSGVPDRFSGSKSGTSASLAITGLQGEDKATYYCQSYDSRLSGPVFGTGTKVTVLG	72.4	29.1	20.7	33	26.4	51	19.1	10.8	20.3	13.8	1.02e-05	174000	3.01	0.000986	328000	0.0586	
ME4.B12 anti-PD-L1 antibody (IgG form) (antibody, V domains shown) VH: QVQLVESGAEVKKPGSSVKVSCKASGGTFNNYAVSWVRQAPGQGLEWMGRIIPILGIANYAQTFQGRVTITADKSTTTAYMELSSLRSEDTAVYYCARSSFGYSVGAFDIWGQGTMVTVSS VL: QFVLTQPPSVSGAPGQRVTISCTGSSSNIGAGYDVHWYQQLPGTAPKVLIYGNSDRPSGVPDRFSGSKSGTSASLAITGLQGEDKATYYCQSYDSRLSGPVFGTGTKVTVLG	81.6	29.2	22.5	33.8	28.9	27.2	16.1	7.13	16.6	9.1	3.19e-06	164000	1.22	0.000379	310000	0.0194	
ME4.A12 anti-PD-L1 antibody (IgG form) (antibody, V domains shown) VH: QVQLVESGAEVKKPGSSVKVSCKASGGTFNNYAVSWVRQAPGQGLEWMGRIIPILGIANYAQTFQGRVTITADKSTTTAYMELSSLRSEDTAVYYCARSHWGYAHGAFDIWGQGTMVTVSS VL: QFVLTQPPSVSGAPGQRVTISCTGSSSNIGAGYDVHWYQQLPGTAPKVLIYGNSDRPSGVPDRFSGSKSGTSASLAITGLQGEDKATYYCQSYDSRLSGPVFGTGTKVTVLG	44.6	18.4	10.6	19.7	12.9	7.31	14.2	5.39	14.4	6.38	2.2e-05	165000	2.65	0.000817	308000	0.134	
ME4.A11 anti-PD-L1 antibody (IgG form) (antibody, V domains shown) VH: QVQLVESGAEVKKPGSSVKVSCKASGGTFNNYAVSWVRQAPGQGLEWMGRIIPILGIANYAQTFQGRVTITADKSTTTAYMELSSLRSEDTAVYYCARSRGGYAHGAFDIWGQGTMVTVSS VL: QFVLTQPPSVSGAPGQRVTISCTGSSSNIGAGYDVHWYQQLPGTAPKVLIYGNSDRPSGVPDRFSGSKSGTSASLAITGLQGEDKATYYCQSYDSRLSGPVFGTGTKVTVLG	52.6	19.4	12.1	21	14.7	9.44	14.2	5.55	14.5	6.63	0.000109	118000	4.86	0.000626	129000	0.918	
ME4.B10 anti-PD-L1 antibody (IgG form) (antibody, V domains shown) VH: QVQLVESGAEVKKPGSSVKVSCKASGGTFNNYAVSWVRQAPGQGLEWMGRIIPILGIANYAQTFQGRVTITADKSTTTAYMELSSLRSEDTAVYYCARSARGYAHGAFDIWGQGTMVTVSS VL: QFVLTQPPSVSGAPGQRVTISCTGSSSNIGAGYDVHWYQQLPGTAPKVLIYGNSDRPSGVPDRFSGSKSGTSASLAITGLQGEDKATYYCQSYDSRLSGPVFGTGTKVTVLG	50.3	19.4	11.5	21	14.2	18.1	15	6.41	15.4	7.85	~2.42e-05	145000	1.62	0.000422	260000	0.167	
